In PMC7192382:

Test system: MtKNOX3 homeodomain (Medicago truncatula)
Assay: SPR
Details: SPR: PBS (150 mM NaCl, 2 mM Na2HPO4)/Tween pH 7.4, BSA 670 ug/ml, protein 0-10 uM, temperature not stated; EMSA: LightShift binding buffer (stock as printed …)

| Substance | Kd |
| --- | --- |
| IPT3-1 (MtIPT3 promoter site) | 2220 nM |
| LOG1 (MtLOG1 first intron site) | 555 nM |
| LOG2-1 (MtLOG2 promoter site) | 28000 nM |
